Data published in publication PMC4230784 (Molecular Biology of the Cell, 2014).

Molecular target: flag-TBC1D9B, full length, wild type (human, UniProt Q66K14-1 1-1250)
Assay: co-IP

Chain of flag-TBC1D9B, full length, wild type (Q66K14 whole entry): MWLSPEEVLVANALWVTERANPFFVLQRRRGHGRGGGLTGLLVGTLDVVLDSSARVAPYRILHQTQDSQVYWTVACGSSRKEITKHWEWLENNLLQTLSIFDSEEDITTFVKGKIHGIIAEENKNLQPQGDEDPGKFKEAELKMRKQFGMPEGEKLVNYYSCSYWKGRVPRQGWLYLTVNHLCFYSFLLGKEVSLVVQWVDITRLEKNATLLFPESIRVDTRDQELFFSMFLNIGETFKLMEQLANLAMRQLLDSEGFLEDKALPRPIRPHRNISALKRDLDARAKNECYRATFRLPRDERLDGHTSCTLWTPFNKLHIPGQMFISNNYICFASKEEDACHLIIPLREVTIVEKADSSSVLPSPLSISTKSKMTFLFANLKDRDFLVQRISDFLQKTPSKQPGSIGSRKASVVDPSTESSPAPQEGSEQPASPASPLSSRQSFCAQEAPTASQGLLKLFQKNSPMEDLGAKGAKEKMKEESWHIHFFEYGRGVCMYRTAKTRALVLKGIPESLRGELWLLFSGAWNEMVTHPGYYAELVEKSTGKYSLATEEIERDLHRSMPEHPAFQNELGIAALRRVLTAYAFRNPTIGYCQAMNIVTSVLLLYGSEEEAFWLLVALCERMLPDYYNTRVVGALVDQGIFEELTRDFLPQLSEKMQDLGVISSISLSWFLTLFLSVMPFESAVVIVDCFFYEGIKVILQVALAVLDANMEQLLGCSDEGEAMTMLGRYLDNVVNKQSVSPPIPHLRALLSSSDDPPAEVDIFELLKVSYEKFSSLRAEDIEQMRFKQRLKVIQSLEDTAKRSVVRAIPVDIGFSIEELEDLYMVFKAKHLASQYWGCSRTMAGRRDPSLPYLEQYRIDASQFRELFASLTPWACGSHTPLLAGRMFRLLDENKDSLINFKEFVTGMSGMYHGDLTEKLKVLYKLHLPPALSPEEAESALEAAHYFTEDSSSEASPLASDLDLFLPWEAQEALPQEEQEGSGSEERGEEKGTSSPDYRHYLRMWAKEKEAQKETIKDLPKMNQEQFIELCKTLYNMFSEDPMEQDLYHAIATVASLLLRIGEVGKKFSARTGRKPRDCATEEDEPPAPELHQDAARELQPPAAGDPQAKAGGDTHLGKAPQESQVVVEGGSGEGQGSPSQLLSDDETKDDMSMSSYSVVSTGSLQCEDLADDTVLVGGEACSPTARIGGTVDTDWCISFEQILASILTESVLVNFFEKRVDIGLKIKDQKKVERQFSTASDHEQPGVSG

fold coimmunoprecipitated against Rab11a-WT or Rab11a-SN: ~5 fold
B1: GFP-Rab11aQ70L (natural protein, UniProt P62491 1-216, looked up)
chain: MGTRDDEYDYLFKVVLIGDSGVGKSNLLSRFTRNEFNLESKSTIGVEFATRSIQVDGKTIKAQIWDTAGLERYRAITSAYYRGAVGALLVYDIAKHLTYENVERWLKELRDHADSNIVIMLVGNKSDLRHLRAVPTDEARAFAEKNGLSFIETSALDSTNVEAAFQTILTEIYRIVSQKQMSDRRENDMSPSNNVVPIHVPPTTENKPKVQCCQNI
